The values that follow come from the supplement of paper PMC5998384.

The subject of data set [1] is HeLa Kyoto. Briefly: solubility change mitosis vs G1/S (difference of NP-40 vs SDS log2 ratios) (log2 ratio difference); higher = more soluble in mitosis.
For data set [2], the system named is HeLa Kyoto. Briefly: solubility in G1/S (NP-40 vs SDS abundance) (log2 ratio); higher = more soluble. Conditions: cell cycle stage: G1/S.
The test system of data set [3] is HeLa Kyoto. In words: melting temperature (median over replicates), in situ; higher = more thermally stable.
Data set [4] relates to HeLa Kyoto. In words: thermal stability score vs G1/S (z-score of summed log2 fold changes over temperatures); higher = more thermally stable than in G1/S.
The mark [5] stands for this setting: cell cycle stage: early G1 (4.5 h after nocodazole release).
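For melting temperature (median over replicates), in situ in this document: HeLa Kyoto cells synchronized by double thymidine or nocodazole block, proteins quantified by TMT10plex mass spectrometry, three independent biological replicates.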
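For solubility change mitosis vs G1/S (difference of NP-40 vs SDS log2 ratios) in this document: synchronized HeLa Kyoto cells (double thymidine block for G1/S, nocodazole release for mitosis), protein amounts in NP-40 versus SDS lysates quantified by mass spectrometry, three biological replicates.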
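For solubility in G1/S (NP-40 vs SDS abundance) in this document: HeLa Kyoto cells arrested at G1/S by double thymidine block, proteins quantified by TMT10plex mass spectrometry in mild NP-40 versus SDS extracts, three biological replicates.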
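For thermal stability score vs G1/S (z-score of summed log2 fold changes over temperatures) in this document: synchronized HeLa Kyoto cells, proteins quantified by TMT10plex mass spectrometry, three biological replicates, mitosis taken 0.5 h after nocodazole release, G1/S directly after double thymidine block.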

Regarding “MADSGLLLKRGSCRSTWLRVRKARPQLILSRRPRRRLGSLRWCGRRRLRWRLLQAQASGVDWREGARQVSRAAAARRPNTATPSPIPSPTPASEPESEPELESASSCHRPLLIPPVRPVGPGRALLLLPVEQGFTFSGICRVTCLYGQVQVFGFTISQGQPAQDIFSVYTHSCLSIHALHYSQPEKSKKELKREARNLLKSHLNLDDRRWSMQNFSPQCSIVLLEHLKTATVNFITSYPGSSYIFVQESPTPQIKPEYLALRSVGIRREKKRKGLQLTESTLSALEELVNVSCEEVDGCPVILVCGSQDVGKSTFNRYLINHLLNSLPCVDYLECDLGQTEFTPPGCISLLNITEPVLGPPFTHLRTPQKMVYYGKPSCKNNYENYIDIVKYVFSAYKRESPLIVNTMGWVSDQGLLLLIDLIRLLSPSHVVQFRSDHSKYMPDLTPQYVDDMDGLYTKSKTKMRNRRFRLAAFADALEFADEEKESPVEFTGHKLIGVYTDFAFRITPRNRESHNKILRDLSILSYLSQLQPPMPKPLSPLHSLTPYQVPFNAVALRITHSDVAPTHILYAVNASWVGLCKIQDDVRGYTNGPILLAQTPICDCLGFGICRGIDMEKRLYHILTPVPPEELRTVNCLLVGAIAIPHCVLKCQRGIEGTVPYVTTDYNFKLPGASEKIGAREPEEAHKEKPYRRPKFCRKMK [NOL9]”, in the data set on HeLa Kyoto [1], the “solubility change mitosis (log2)” value was 0.92. For the same sequence, in the data set on HeLa Kyoto [2], the “solubility in G1/S (log2)” value was -1.82. Further, the melting temperature with HeLa Kyoto [3] (cell cycle stage: mitosis) came to 51.3 °C. Further, the thermal stability score is 1.99 in the data set with HeLa Kyoto [4] (setting [5]) and 1.53 in the data set with HeLa Kyoto [4] (cell cycle stage: mitosis).
As to “MADSKEGVLPLTAASTAPISFGFTRTSARRRLADSGDGAGPSPEEKDFLKTVEGRELQSVKPQEAPKELVIPLIQNGHRRQPPARPPGPSTDTGALADGVVSQAVKELIAESKKSLEERENAGVDPTLAIPMIQKGCTPSGEGADSEPRAETVPEEANYEAVPVEAYGLAMLRGMGWKPGEGIGRTFNQVVKPRVNSLRPKGLGLGANLTEAQALTPTGPSRMPRPDEEQEKDKEDQPQGLVPGGAVVVLSGPHRGLYGKVEGLDPDNVRAMVRLAVGSRVVTVSEYYLRPVSQQEFDKNTLDLRQQNGTASSRKTLWNQELYIQQDNSERKRKHLPDRQDGPAAKSEKAAPRSQHWLHRDLRVRFVDNMYKGGQYYNTKMIIEDVLSPDTCVCRTDEGRVLEGLREDMLETLVPKAEGDRVMVVLGPQTGRVGHLLSRDRARSRALVQLPRENQVVELHYDAICQYMGPSDTDDD [GPKOW]”, in the data set on HeLa Kyoto [1], the “solubility change mitosis (log2)” value was -0.0336. Besides, the “solubility in G1/S (log2)” value with HeLa Kyoto [2] amounted to 0.393. In addition, the melting temperature with HeLa Kyoto [3] (cell cycle stage: G1/S) is 48.8 °C; with HeLa Kyoto [3] (cell cycle stage: mitosis) it was 49.8 °C. Further, the thermal stability score with HeLa Kyoto [4] (setting [5]) is 0.906; in the data set with HeLa Kyoto [4] (cell cycle stage: mitosis) it was 2.23.
As for “MADTDLFMECEEEELEPWQKISDVIEDSVVEDYNSVDKTTTVSVSQQPVSAPVPIAAHASVAGHLSTSTTVSSSGAQNSDSTKKTLVTLIANNNAGNPLVQQGGQPLILTQNPAPGLGTMVTQPVLRPVQVMQNANHVTSSPVASQPIFITTQGFPVRNVRPVQNAMNQVGIVLNVQQGQTVRPITLVPAPGTQFVKPTVGVPQVFSQMTPVRPGSTMPVRPTTNTFTTVIPATLTIRSTVPQSQSQQTKSTPSTSTTPTATQPTSLGQLAVQSPGQSNQTTNPKLAPSFPSPPAVSIASFVTVKRPGVTGENSNEVAKLVNTLNTIPSLGQSPGPVVVSNNSSAHGSQRTSGPESSMKVTSSIPVFDLQDGGRKICPRCNAQFRVTEALRGHMCYCCPEMVEYQKKGKSLDSEPSVPSAAKPPSPEKTAPVASTPSSTPIPALSPPTKVPEPNENVGDAVQTKLIMLVDDFYYGRDGGKVAQLTNFPKVATSFRCPHCTKRLKNNIRFMNHMKHHVELDQQNGEVDGHTICQHCYRQFSTPFQLQCHLENVHSPYESTTKCKICEWAFESEPLFLQHMKDTHKPGEMPYVCQVCQYRSSLYSEVDVHFRMIHEDTRHLLCPYCLKVFKNGNAFQQHYMRHQKRNVYHCNKCRLQFLFAKDKIEHKLQHHKTFRKPKQLEGLKPGTKVTIRASRGQPRTVPVSSNDTPPSALQEAAPLTSSMDPLPVFLYPPVQRSIQKRAVRKMSVMGRQTCLECSFEIPDFPNHFPTYVHCSLCRYSTCCSRAYANHMINNHVPRKSPKYLALFKNSVSGIKLACTSCTFVTSVGDAMAKHLVFNPSHRSSSILPRGLTWIAHSRHGQTRDRVHDRNVKNMYPPPSFPTNKAATVKSAGATPAEPEELLTPLAPALPSPASTATPPPTPTHPQALALPPLATEGAECLNVDDQDEGSPVTQEPELASGGGGSGGVGKKEQLSVKKLRVVLFALCCNTEQAAEHFRNPQRRIRRWLRRFQASQGENLEGKYLSFEAEEKLAEWVLTQREQQLPVNEETLFQKATKIGRSLEGGFKISYEWAVRFMLRHHLTPHARRAVAHTLPKDVAENAGLFIDFVQRQIHNQDLPLSMIVAIDEISLFLDTEVLSSDDRKENALQTVGTGEPWCDVVLAILADGTVLPTLVFYRGQMDQPANMPDSILLEAKESGYSDDEIMELWSTRVWQKHTACQRSKGMLVMDCHRTHLSEEVLAMLSASSTLPAVVPAGCSSKIQPLDVCIKRTVKNFLHKKWKEQAREMADTACDSDVLLQLVLVWLGEVLGVIGDCPELVQRSFLVASVLPGPDGNINSPTRNADMQEELIASLEEQLKLSGEHSESSTPRPRSSPEETIEPESLHQLFEGESETESFYGFEEADLDLMEI [POGZ]”, the “solubility change mitosis (log2)” value in the data set on HeLa Kyoto [1] is 0.341. For the same sequence, the “solubility in G1/S (log2)” value with HeLa Kyoto [2] is -0.704. The same sequence had a melting temperature with HeLa Kyoto [3] (cell cycle stage: mitosis) of 49.5 °C. Moreover, the thermal stability score with HeLa Kyoto [4] (setting [5]) came to 1.1; in the data set on HeLa Kyoto [4] (cell cycle stage: mitosis) it was 2.58.
On to “MADTLPSEFDVIVIGTGLPESIIAAACSRSGRRVLHVDSRSYYGGNWASFSFSGLLSWLKEYQENSDIVSDSPVWQDQILENEEAIALSRKDKTIQHVEVFCYASQDLHEDVEEAGALQKNHALVTSANSTEAADSAFLPTEDESLSTMSCEMLTEQTPSSDPENALEVNGAEVTGEKENHCDDKTCVPSTSAEDMSENVPIAEDTTEQPKKNRITYSQIIKEGRRFNIDLVSKLLYSRGLLIDLLIKSNVSRYAEFKNITRILAFREGRVEQVPCSRADVFNSKQLTMVEKRMLMKFLTFCMEYEKYPDEYKGYEEITFYEYLKTQKLTPNLQYIVMHSIAMTSETASSTIDGLKATKNFLHCLGRYGNTPFLFPLYGQGELPQCFCRMCAVFGGIYCLRHSVQCLVVDKESRKCKAIIDQFGQRIISEHFLVEDSYFPENMCSRVQYRQISRAVLITDRSVLKTDSDQQISILTVPAEEPGTFAVRVIELCSSTMTCMKGTYLVHLTCTSSKTAREDLESVVQKLFVPYTEMEIENEQVEKPRILWALYFNMRDSSDISRSCYNDLPSNVYVCSGPDCGLGNDNAVKQAETLFQEICPNEDFCPPPPNPEDIILDGDSLQPEASESSAIPEANSETFKESTNLGNLEESSE [CHM]”, for which, in the data set on HeLa Kyoto [1], the “solubility change mitosis (log2)” value was -0.191. The “solubility in G1/S (log2)” value in the data set with HeLa Kyoto [2] was -0.115. In addition, the melting temperature was determined as 52.9 °C with HeLa Kyoto [3] (cell cycle stage: G1/S) and 53.1 °C with HeLa Kyoto [3] (cell cycle stage: mitosis). For the same sequence, the thermal stability score in the data set with HeLa Kyoto [4] (setting [5]) was -0.484; with HeLa Kyoto [4] (cell cycle stage: mitosis), -1.2.
Consider “MAEAAAAAGGTGLGAGASYGSAADRDRDPDPDRAGRRLRVLSGHLLGRPREALSTNECKARRAASAATAAPTATPAAQESGTIPKKRQEVMKWNGWGYNDSKFIFNKKGQIELTGKRYPLSGMGLPTFKEWIQNTLGVNVEHKTTSKASLNPSDTPPSVVNEDFLHDLKETNISYSQEADDRVFRAHGHCLHEIFLLREGMFERIPDIVLWPTCHDDVVKIVNLACKYNLCIIPIGGGTSVSYGLMCPADETRTIISLDTSQMNRILWVDENNLTAHVEAGITGQELERQLKESGYCTGHEPDSLEFSTVGGWVSTRASGMKKNIYGNIEDLVVHIKMVTPRGIIEKSCQGPRMSTGPDIHHFIMGSEGTLGVITEATIKIRPVPEYQKYGSVAFPNFEQGVACLREIAKQRCAPASIRLMDNKQFQFGHALKPQVSSIFTSFLDGLKKFYITKFKGFDPNQLSVATLLFEGDREKVLQHEKQVYDIAAKFGGLAAGEDNGQRGYLLTYVIAYIRDLALEYYVLGESFETSAPWDRVVDLCRNVKERITRECKEKGVQFAPFSTCRVTQTYDAGACIYFYFAFNYRGISDPLTVFEQTEAAAREEILANGGSLSHHHGVGKLRKQWLKESISDVGFGMLKSVKEYVDPNNIFGNRNLL [AGPS]”, for which, in the data set with HeLa Kyoto [1], the “solubility change mitosis (log2)” value was -0.139. For the same sequence, the “solubility in G1/S (log2)” value in the data set on HeLa Kyoto [2] was -0.0393. Further, the results for the melting temperature with HeLa Kyoto [3] (cell cycle stage: G1/S) and in the data set on HeLa Kyoto [3] (cell cycle stage: mitosis) were 52.8 °C and 52.9 °C, respectively. For the same sequence, the thermal stability score was determined as 0.703 in the data set on HeLa Kyoto [4] (setting [5]) and 1.37 in the data set on HeLa Kyoto [4] (cell cycle stage: mitosis).
